System: Escherichia coli TOP10
Assay: shrunken log2 fold change of peptide-encoding DNA abundance (4.5 h post-induction vs induction); higher = less antimicrobial activity (less host growth inhibition)
Settings: time post-induction: 4.5 h; library: site-saturation at positions 5, 18, 19, 20
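Note: peptides expressed intracellularly from a pBAD plasmid library in pooled LB shake-flask culture, induced with 0.3% L-arabinose, DNA abundance read by NGS, three biological replicates, DESeq2 with apeglm shrinkage.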

## RRIRPRPPRLPRPRPRPGTCPRP
  shrunken log2 fold change: 0.182

## RRIRTRPPRLPRPRPRPHWIPRP
  shrunken log2 fold change: -0.569

## RRIRVRPPRLPRPRPRPCFTPRP
  shrunken log2 fold change: -0.0879

## RRIRGRPPRLPRPRPRPATHPRP
  shrunken log2 fold change: 0.862

## RRIRCRPPRLPRPRPRPVPDPRP
  shrunken log2 fold change: -0.0739

## RRIRYRPPRLPRPRPRPQVYPRP
  shrunken log2 fold change: -0.169

## RRIRYRPPRLPRPRPRPKIAPRP
  shrunken log2 fold change: -0.404

## RRIRKRPPRLPRPRPRPWFRPRP
  shrunken log2 fold change: 0.00108

## RRIRRRPPRLPRPRPRPFQNPRP
  shrunken log2 fold change: 0.0537

## RRIRERPPRLPRPRPRPRENPRP
  shrunken log2 fold change: -0.362

## RRIRTRPPRLPRPRPRPAMEPRP
  shrunken log2 fold change: -0.0176

## RRIRYRPPRLPRPRPRPTLRPRP
  shrunken log2 fold change: -0.484

## RRIRQRPPRLPRPRPRPGCDPRP
  shrunken log2 fold change: -0.229

## RRIRGRPPRLPRPRPRPAIAPRP
  shrunken log2 fold change: 0.91

## RRIRPRPPRLPRPRPRPRKTPRP
  shrunken log2 fold change: 0.0393

## RRIRKRPPRLPRPRPRPYFRPRP
  shrunken log2 fold change: 0.123

## RRIRKRPPRLPRPRPRPKEPPRP
  shrunken log2 fold change: 0.074

## RRIRMRPPRLPRPRPRPFGAPRP
  shrunken log2 fold change: 0.329

## RRIRGRPPRLPRPRPRPLSIPRP
  shrunken log2 fold change: 0.363

## RRIRVRPPRLPRPRPRPIPFPRP
  shrunken log2 fold change: 0.0609

## RRIRIRPPRLPRPRPRPNAPPRP
  shrunken log2 fold change: 0.00635

## RRIRTRPPRLPRPRPRPCKWPRP
  shrunken log2 fold change: -0.000493

## RRIRDRPPRLPRPRPRPCFSPRP
  shrunken log2 fold change: -0.0275

## RRIRNRPPRLPRPRPRPHMHPRP
  shrunken log2 fold change: -0.582

## RRIRWRPPRLPRPRPRPSYSPRP
  shrunken log2 fold change: -0.705

## RRIRARPPRLPRPRPRPLYEPRP
  shrunken log2 fold change: 0.000796

## RRIRTRPPRLPRPRPRPQCPPRP
  shrunken log2 fold change: -0.125

## RRIRQRPPRLPRPRPRPFRVPRP
  shrunken log2 fold change: -0.153

## RRIRKRPPRLPRPRPRPLSTPRP
  shrunken log2 fold change: 0.025

## RRIRLRPPRLPRPRPRPRVVPRP
  shrunken log2 fold change: -0.0437

## RRIRRRPPRLPRPRPRPEHYPRP
  shrunken log2 fold change: 0.0555

## RRIRVRPPRLPRPRPRPVCLPRP
  shrunken log2 fold change: 0.619

## RRIRVRPPRLPRPRPRPDTYPRP
  shrunken log2 fold change: -0.995

## RRIRERPPRLPRPRPRPGPCPRP
  shrunken log2 fold change: 0.183

## RRIRVRPPRLPRPRPRPHQYPRP
  shrunken log2 fold change: -0.278

## RRIRFRPPRLPRPRPRPDYFPRP
  shrunken log2 fold change: -0.167

## RRIRTRPPRLPRPRPRPFANPRP
  shrunken log2 fold change: -0.116

## RRIRVRPPRLPRPRPRPAFKPRP
  shrunken log2 fold change: 0.086

## RRIRYRPPRLPRPRPRPYCNPRP
  shrunken log2 fold change: -0.515

## RRIRNRPPRLPRPRPRPFTRPRP
  shrunken log2 fold change: 0.00645

## RRIRKRPPRLPRPRPRPCRIPRP
  shrunken log2 fold change: -0.0405

## RRIRQRPPRLPRPRPRPIWYPRP
  shrunken log2 fold change: 0.0288

## RRIRYRPPRLPRPRPRPQCGPRP
  shrunken log2 fold change: -0.46

## RRIRTRPPRLPRPRPRPKCPPRP
  shrunken log2 fold change: 0.281

## RRIRHRPPRLPRPRPRPRWGPRP
  shrunken log2 fold change: 0.255

## RRIRSRPPRLPRPRPRPRVQPRP
  shrunken log2 fold change: -0.25

## RRIRARPPRLPRPRPRPYEYPRP
  shrunken log2 fold change: -0.04

## RRIRRRPPRLPRPRPRPCSGPRP
  shrunken log2 fold change: -0.0988

## RRIRERPPRLPRPRPRPVRKPRP
  shrunken log2 fold change: -0.0457

## RRIRERPPRLPRPRPRPDCHPRP
  shrunken log2 fold change: -0.011

## RRIRNRPPRLPRPRPRPKNEPRP
  shrunken log2 fold change: -0.0366

## RRIRCRPPRLPRPRPRPVMTPRP
  shrunken log2 fold change: -0.147

## RRIRLRPPRLPRPRPRPTCVPRP
  shrunken log2 fold change: 0.0314

## RRIRLRPPRLPRPRPRPSNEPRP
  shrunken log2 fold change: -0.299

## RRIRPRPPRLPRPRPRPLRCPRP
  shrunken log2 fold change: 0.394

## RRIRTRPPRLPRPRPRPNWDPRP
  shrunken log2 fold change: 0.00303

## RRIRTRPPRLPRPRPRPHECPRP
  shrunken log2 fold change: -0.287

## RRIRPRPPRLPRPRPRPLTKPRP
  shrunken log2 fold change: 0.0122

## RRIRLRPPRLPRPRPRPLAKPRP
  shrunken log2 fold change: 0.0773

## RRIRWRPPRLPRPRPRPNVEPRP
  shrunken log2 fold change: -0.319

## RRIRWRPPRLPRPRPRPRVLPRP
  shrunken log2 fold change: 0.381

## RRIRNRPPRLPRPRPRPEFTPRP
  shrunken log2 fold change: -0.161

## RRIRKRPPRLPRPRPRPERTPRP
  shrunken log2 fold change: 0.772

## RRIRERPPRLPRPRPRPPYAPRP
  shrunken log2 fold change: -0.208

## RRIRHRPPRLPRPRPRPSRQPRP
  shrunken log2 fold change: 0.212

## RRIRNRPPRLPRPRPRPFYNPRP
  shrunken log2 fold change: -0.484

## RRIRMRPPRLPRPRPRPELPPRP
  shrunken log2 fold change: 2.29

## RRIRIRPPRLPRPRPRPFVFPRP
  shrunken log2 fold change: -0.356

## RRIRERPPRLPRPRPRPTAMPRP
  shrunken log2 fold change: 0.109

## RRIRRRPPRLPRPRPRPHYMPRP
  shrunken log2 fold change: -0.126

## RRIRIRPPRLPRPRPRPVVPPRP
  shrunken log2 fold change: -0.215

## RRIRGRPPRLPRPRPRPHFMPRP
  shrunken log2 fold change: 0.152

## RRIRGRPPRLPRPRPRPFHKPRP
  shrunken log2 fold change: -0.411

## RRIRPRPPRLPRPRPRPMTEPRP
  shrunken log2 fold change: -0.0153

## RRIRCRPPRLPRPRPRPTTPPRP
  shrunken log2 fold change: 0.227

## RRIRIRPPRLPRPRPRPYWGPRP
  shrunken log2 fold change: -0.151

## RRIRPRPPRLPRPRPRPVVHPRP
  shrunken log2 fold change: -0.205

## RRIRGRPPRLPRPRPRPMWGPRP
  shrunken log2 fold change: -0.0435

## RRIRVRPPRLPRPRPRPMGLPRP
  shrunken log2 fold change: -0.00681

## RRIRCRPPRLPRPRPRPIYQPRP
  shrunken log2 fold change: -0.306

## RRIRSRPPRLPRPRPRPFVHPRP
  shrunken log2 fold change: -0.291

## RRIRIRPPRLPRPRPRPQYWPRP
  shrunken log2 fold change: -0.361

## RRIRFRPPRLPRPRPRPYVSPRP
  shrunken log2 fold change: -0.438

## RRIRVRPPRLPRPRPRPPSTPRP
  shrunken log2 fold change: 0.238

## RRIRCRPPRLPRPRPRPMKIPRP
  shrunken log2 fold change: 0.13

## RRIRTRPPRLPRPRPRPQANPRP
  shrunken log2 fold change: -0.156

## RRIRRRPPRLPRPRPRPEQPPRP
  shrunken log2 fold change: 0.389

## RRIRQRPPRLPRPRPRPNPVPRP
  shrunken log2 fold change: -0.117

## RRIRLRPPRLPRPRPRPHECPRP
  shrunken log2 fold change: 0.0907

## RRIRTRPPRLPRPRPRPENRPRP
  shrunken log2 fold change: -0.0266

## RRIRGRPPRLPRPRPRPWVPPRP
  shrunken log2 fold change: 0.0241

## RRIRIRPPRLPRPRPRPDKIPRP
  shrunken log2 fold change: -0.0602

## RRIRYRPPRLPRPRPRPLHLPRP
  shrunken log2 fold change: -0.516

## RRIRARPPRLPRPRPRPRDLPRP
  shrunken log2 fold change: -0.162

## RRIRNRPPRLPRPRPRPACHPRP
  shrunken log2 fold change: 0.152

## RRIRKRPPRLPRPRPRPCETPRP
  shrunken log2 fold change: -0.0599

## RRIRRRPPRLPRPRPRPKVFPRP
  shrunken log2 fold change: -0.00912

## RRIRWRPPRLPRPRPRPREIPRP
  shrunken log2 fold change: 0.426

## RRIRTRPPRLPRPRPRPEMWPRP
  shrunken log2 fold change: 0.0446

## RRIRIRPPRLPRPRPRPAIGPRP
  shrunken log2 fold change: -0.207

## RRIRIRPPRLPRPRPRPACVPRP
  shrunken log2 fold change: 0.0215

## RRIRCRPPRLPRPRPRPPMAPRP
  shrunken log2 fold change: 0.263

## RRIRCRPPRLPRPRPRPAFKPRP
  shrunken log2 fold change: 0.132

## RRIRGRPPRLPRPRPRPYKTPRP
  shrunken log2 fold change: -0.0831

## RRIRKRPPRLPRPRPRPFQMPRP
  shrunken log2 fold change: -0.28

## RRIRWRPPRLPRPRPRPHLTPRP
  shrunken log2 fold change: -0.19

## RRIRGRPPRLPRPRPRPSCWPRP
  shrunken log2 fold change: 0.413

## RRIRARPPRLPRPRPRPATMPRP
  shrunken log2 fold change: 0.413

## RRIRYRPPRLPRPRPRPPRVPRP
  shrunken log2 fold change: -0.0115

## RRIRIRPPRLPRPRPRPYSNPRP
  shrunken log2 fold change: -0.385

## RRIRSRPPRLPRPRPRPFNHPRP
  shrunken log2 fold change: -1.19

## RRIRKRPPRLPRPRPRPQEPPRP
  shrunken log2 fold change: 0.01

## RRIRQRPPRLPRPRPRPVRWPRP
  shrunken log2 fold change: 0.428

## RRIRHRPPRLPRPRPRPGIAPRP
  shrunken log2 fold change: -0.0902

## RRIRERPPRLPRPRPRPHRHPRP
  shrunken log2 fold change: -0.18

## RRIRERPPRLPRPRPRPQQHPRP
  shrunken log2 fold change: -0.301

## RRIRERPPRLPRPRPRPVCEPRP
  shrunken log2 fold change: 0.162

## RRIRCRPPRLPRPRPRPNNLPRP
  shrunken log2 fold change: -0.765

## RRIRDRPPRLPRPRPRPGNFPRP
  shrunken log2 fold change: -0.0885

## RRIRARPPRLPRPRPRPFPAPRP
  shrunken log2 fold change: 0.439

## RRIRMRPPRLPRPRPRPQTWPRP
  shrunken log2 fold change: 0.39

## RRIRSRPPRLPRPRPRPGCSPRP
  shrunken log2 fold change: -0.115

## RRIRMRPPRLPRPRPRPMNSPRP
  shrunken log2 fold change: 0.0624

## RRIRTRPPRLPRPRPRPYKEPRP
  shrunken log2 fold change: -0.228

## RRIRMRPPRLPRPRPRPFTFPRP
  shrunken log2 fold change: -0.096

Source: the supplement of paper PMC9112550, “Optimization of the antimicrobial peptide Bac7 by deep mutational scanning” (BMC Biology, 2022)
